Data as given in patent US20140037624A1.

What was measured:
[1] = biological target: T1, mouse FGFR4-Fc chimeric protein (mouse) (UniProt Q03142); assay: solid phase binding assay, LD1 on immobilized mFGFR4-Fc, OD 450 nm
T1 sequence (looked up): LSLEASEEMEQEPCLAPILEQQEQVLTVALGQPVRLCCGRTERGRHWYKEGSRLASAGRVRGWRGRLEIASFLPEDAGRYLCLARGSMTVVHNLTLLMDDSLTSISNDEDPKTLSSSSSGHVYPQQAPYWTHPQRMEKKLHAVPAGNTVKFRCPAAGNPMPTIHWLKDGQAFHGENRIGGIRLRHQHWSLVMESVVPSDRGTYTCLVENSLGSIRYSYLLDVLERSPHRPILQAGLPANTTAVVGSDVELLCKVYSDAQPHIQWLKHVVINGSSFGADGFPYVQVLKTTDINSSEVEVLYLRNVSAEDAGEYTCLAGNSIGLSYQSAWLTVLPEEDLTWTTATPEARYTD

[2] = biological target: human FGFR4 at the cell surface (stably transfected HEK293 and L6 cells; endogenous on human liver cancer cell lines) (human) (UniProt P22455); assay: flow cytometry on HEK293 cells stably transfected with hFGFR4, RFU
[3] = biological target: T2, human FGFR4-Fc chimeric protein (human) (UniProt P22455); assay: solid phase binding assay, LD1 on immobilized hFGFR4-Fc, OD 450 nm
T2 sequence: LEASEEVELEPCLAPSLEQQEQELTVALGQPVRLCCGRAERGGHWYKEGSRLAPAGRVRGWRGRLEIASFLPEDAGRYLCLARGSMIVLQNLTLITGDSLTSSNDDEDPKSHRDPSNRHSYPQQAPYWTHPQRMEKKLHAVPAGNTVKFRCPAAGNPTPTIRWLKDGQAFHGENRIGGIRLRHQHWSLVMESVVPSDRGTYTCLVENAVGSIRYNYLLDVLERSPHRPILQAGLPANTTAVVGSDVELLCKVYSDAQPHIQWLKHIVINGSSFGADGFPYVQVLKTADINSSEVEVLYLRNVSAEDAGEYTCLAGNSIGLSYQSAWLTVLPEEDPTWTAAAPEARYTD

[4] = biological target: human FGFR4 at the cell surface (stably transfected HEK293 and L6 cells; endogenous on human liver cancer cell lines) (human) (UniProt P22455); assay: cell-based or functional assay

B1: chimeric LD1 (murine LD1 variable domains with human kappa and human IgG1 constant domains) (antibody, V domains shown)
VH: EVQLQQPGAVLVRPGTSVKLSCKASGYTFTNHWMNWVKQRPGQGLEWIGMIHPSDSETTLDQKFKDKATLTVDKSSSTAYMQLNRPTSEDSAVYYCTRGDISLFDYWGQGTTVTVSS
VL: DIQMTQTTSSLSASLGDRVTITCRTSQDISNFLNWYQQKPDGTFKILISYTSRLHSGVPSRFSGSGSGTDYSLTISTLEQEDFATYFCQQGNALPYTFGGGTKLEIE
[1]
  EC50 (read off the curve): 0.04 µg/mL
[2]
  EC50 (read off the curve): 0.5 µg/mL
[3]
  EC50 (read off the curve): 0.04 µg/mL
[4]
  CYP7α1 expression in HEP3B cells with added FGF19: 67%
  CYP7α1 expression in HEP3B cells without added FGF19: 2 fold
  CYP7α1 expression in HUH7 cells in the absence of FGF19: 3.5 fold
  CYP7α1 expression in HUH7 cells in the presence of FGF19: 2.9 fold
  decrease of basal c-Fos expression in JHH5, JHH7 and HUH7 cell lines: 50%
  decrease of basal c-Fos expression in the PLC/PRF/5 cell line: 75%
  maximum inhibition of colony formation, HUH7 cells: 50%
  maximum inhibition of colony formation, JHH5 cells: 26%
  maximum inhibition of colony formation, PLC/PRF/5 cells: 82%
